The numbers were not newly measured in paper PMC8027070, which cites them from elsewhere.

The target of series [1] is VIP (Homo sapiens) (UniProt P01282).
For series [2], the target named is PACAP (Homo sapiens) (UniProt P18509).
The target of series [3] is VIP (Homo sapiens) (UniProt P01282). The source holds these as a separate data set.
The target of series [4] is PACAP (Homo sapiens) (UniProt P18509). The source holds these as a separate data set.
Series [5] addresses VIP (Homo sapiens) (UniProt P01282). The source holds these as a separate data set.
Series [6] has as its target PACAP (Homo sapiens) (UniProt P18509). This is another data set of the same source.

Where two headings read alike, the source gives them in different places. Some results are limits rather than exact numbers.

Chain of UniProt P01282 (P01282 125-152): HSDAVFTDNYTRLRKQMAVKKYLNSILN
Chain of UniProt P18509 (P18509 82-129): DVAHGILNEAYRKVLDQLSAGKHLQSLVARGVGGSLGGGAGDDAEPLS

Usually Kd stands for the concentration at which binding is half-saturated. With PAC1 receptor (from UniProt P41586), the results for the Kd in the series with VIP (Homo sapiens) [1] and with PACAP (Homo sapiens) [2] were greater than 500 nM and 0.5 nM, respectively.
Consider VPAC1 receptor (from UniProt P32241), for which the Kd with VIP (Homo sapiens) [3] and with PACAP (Homo sapiens) [4] was 1 nM throughout.
As to VPAC2 receptor (from UniProt P41587), the Kd in the series with VIP (Homo sapiens) [5] and in the series with PACAP (Homo sapiens) [6] was 1 nM in each case.
